Target: extracellular region of human V158 FcγRIIIa fused with glutathione S-Transferase (GST) (human, UniProt P08637 17-208)
Assay: AlphaScreen competition

extracellular region of human V158 FcγRIIIa fused with glutathione S-Transferase (GST), sequence (P08637 17-208 F176V): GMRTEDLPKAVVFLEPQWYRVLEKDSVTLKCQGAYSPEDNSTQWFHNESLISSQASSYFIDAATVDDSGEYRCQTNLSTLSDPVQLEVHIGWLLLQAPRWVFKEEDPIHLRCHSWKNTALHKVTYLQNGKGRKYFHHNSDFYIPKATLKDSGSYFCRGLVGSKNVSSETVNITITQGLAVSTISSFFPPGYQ

Binder | FcγRIIIa Fold [fold vs WT]
F241E/F243Y/V262T/V264R/I332E alemtuzumab (antibody) heavy: DKTHTCPPCPAPELLGGPSVELYPPKPKDTLMISRTPEVTCTVRDVSHEDPEVKFNWYVDGVEVHNAKTKPREEQYNSTYRVVSVLTVLHQDWLNGKEYKCKVSNKALPAPEEKTISKAKGQPREPQVYTLPPSRDELTKNQVSLTCLVKGFYPSDIAVEWESNGQPENNYKTTPPVLDSDGSFFLYSKLTVDKSRWQQGNVFSCSVMHEALHNHYTQKSLSLSPGK | 0.1
S239D/D265Y/N297D/I332E alemtuzumab (antibody) heavy: DKTHTCPPCPAPELLGGPDVFLFPPKPKDTLMISRTPEVTCVVVYVSHEDPEVKFNWYVDGVEVHNAKTKPREEQYDSTYRVVSVLTVLHQDWLNGKEYKCKVSNKALPAPEEKTISKAKGQPREPQVYTLPPSRDELTKNQVSLTCLVKGFYPSDIAVEWESNGQPENNYKTTPPVLDSDGSFFLYSKLTVDKSRWQQGNVFSCSVMHEALHNHYTQKSLSLSPGK | 0.02
F241L/F243L/V262I/V264I alemtuzumab (antibody) heavy: DKTHTCPPCPAPELLGGPSVLLLPPKPKDTLMISRTPEVTCIVIDVSHEDPEVKFNWYVDGVEVHNAKTKPREEQYNSTYRVVSVLTVLHQDWLNGKEYKCKVSNKALPAPIEKTISKAKGQPREPQVYTLPPSRDELTKNQVSLTCLVKGFYPSDIAVEWESNGQPENNYKTTPPVLDSDGSFFLYSKLTVDKSRWQQGNVFSCSVMHEALHNHYTQKSLSLSPGK | 0.09
P230A/E233D/I332E trastuzumab (antibody) heavy: DKTHTCPPCAAPDLLGGPSVFLFPPKPKDTLMISRTPEVTCVVVDVSHEDPEVKFNWYVDGVEVHNAKTKPREEQYNSTYRVVSVLTVLHQDWLNGKEYKCKVSNKALPAPEEKTISKAKGQPREPQVYTLPPSRDELTKNQVSLTCLVKGFYPSDIAVEWESNGQPENNYKTTPPVLDSDGSFFLYSKLTVDKSRWQQGNVFSCSVMHEALHNHYTQKSLSLSPGK | 1.87
S239D/I332E/A330I trastuzumab (antibody) heavy: DKTHTCPPCPAPELLGGPDVFLFPPKPKDTLMISRTPEVTCVVVDVSHEDPEVKFNWYVDGVEVHNAKTKPREEQYNSTYRVVSVLTVLHQDWLNGKEYKCKVSNKALPIPEEKTISKAKGQPREPQVYTLPPSRDELTKNQVSLTCLVKGFYPSDIAVEWESNGQPENNYKTTPPVLDSDGSFFLYSKLTVDKSRWQQGNVFSCSVMHEALHNHYTQKSLSLSPGK | 59.1
S239D/A330Y/I332E/L235D trastuzumab (antibody) heavy: DKTHTCPPCPAPELDGGPDVFLFPPKPKDTLMISRTPEVTCVVVDVSHEDPEVKFNWYVDGVEVHNAKTKPREEQYNSTYRVVSVLTVLHQDWLNGKEYKCKVSNKALPYPEEKTISKAKGQPREPQVYTLPPSRDELTKNQVSLTCLVKGFYPSDIAVEWESNGQPENNYKTTPPVLDSDGSFFLYSKLTVDKSRWQQGNVFSCSVMHEALHNHYTQKSLSLSPGK | 7.04
F243L/V262I/V264W alemtuzumab (antibody) heavy: DKTHTCPPCPAPELLGGPSVFLLPPKPKDTLMISRTPEVTCIVWDVSHEDPEVKFNWYVDGVEVHNAKTKPREEQYNSTYRVVSVLTVLHQDWLNGKEYKCKVSNKALPAPIEKTISKAKGQPREPQVYTLPPSRDELTKNQVSLTCLVKGFYPSDIAVEWESNGQPENNYKTTPPVLDSDGSFFLYSKLTVDKSRWQQGNVFSCSVMHEALHNHYTQKSLSLSPGK | 0.02
S239D/A330Y/I332E/V240I trastuzumab (antibody) heavy: DKTHTCPPCPAPELLGGPDIFLFPPKPKDTLMISRTPEVTCVVVDVSHEDPEVKFNWYVDGVEVHNAKTKPREEQYNSTYRVVSVLTVLHQDWLNGKEYKCKVSNKALPYPEEKTISKAKGQPREPQVYTLPPSRDELTKNQVSLTCLVKGFYPSDIAVEWESNGQPENNYKTTPPVLDSDGSFFLYSKLTVDKSRWQQGNVFSCSVMHEALHNHYTQKSLSLSPGK | 28
S239D/A330Y/I332E/K326E trastuzumab (antibody) heavy: DKTHTCPPCPAPELLGGPDVFLFPPKPKDTLMISRTPEVTCVVVDVSHEDPEVKFNWYVDGVEVHNAKTKPREEQYNSTYRVVSVLTVLHQDWLNGKEYKCKVSNEALPYPEEKTISKAKGQPREPQVYTLPPSRDELTKNQVSLTCLVKGFYPSDIAVEWESNGQPENNYKTTPPVLDSDGSFFLYSKLTVDKSRWQQGNVFSCSVMHEALHNHYTQKSLSLSPGK | 64.1
S239D/A330Y/I332E/L234I trastuzumab (antibody) heavy: DKTHTCPPCPAPEILGGPDVFLFPPKPKDTLMISRTPEVTCVVVDVSHEDPEVKFNWYVDGVEVHNAKTKPREEQYNSTYRVVSVLTVLHQDWLNGKEYKCKVSNKALPYPEEKTISKAKGQPREPQVYTLPPSRDELTKNQVSLTCLVKGFYPSDIAVEWESNGQPENNYKTTPPVLDSDGSFFLYSKLTVDKSRWQQGNVFSCSVMHEALHNHYTQKSLSLSPGK | 22.4
F241W/F243W/V262A/V264A alemtuzumab (antibody) heavy: DKTHTCPPCPAPELLGGPSVWLWPPKPKDTLMISRTPEVTCAVADVSHEDPEVKFNWYVDGVEVHNAKTKPREEQYNSTYRVVSVLTVLHQDWLNGKEYKCKVSNKALPAPIEKTISKAKGQPREPQVYTLPPSRDELTKNQVSLTCLVKGFYPSDIAVEWESNGQPENNYKTTPPVLDSDGSFFLYSKLTVDKSRWQQGNVFSCSVMHEALHNHYTQKSLSLSPGK | 0.04
F241Y/F243Y/V262T/V264T alemtuzumab (antibody) heavy: DKTHTCPPCPAPELLGGPSVYLYPPKPKDTLMISRTPEVTCTVTDVSHEDPEVKFNWYVDGVEVHNAKTKPREEQYNSTYRVVSVLTVLHQDWLNGKEYKCKVSNKALPAPIEKTISKAKGQPREPQVYTLPPSRDELTKNQVSLTCLVKGFYPSDIAVEWESNGQPENNYKTTPPVLDSDGSFFLYSKLTVDKSRWQQGNVFSCSVMHEALHNHYTQKSLSLSPGK | 0.05
S239D/A330Y/I332E/V264T trastuzumab (antibody) heavy: DKTHTCPPCPAPELLGGPDVFLFPPKPKDTLMISRTPEVTCVVTDVSHEDPEVKFNWYVDGVEVHNAKTKPREEQYNSTYRVVSVLTVLHQDWLNGKEYKCKVSNKALPYPEEKTISKAKGQPREPQVYTLPPSRDELTKNQVSLTCLVKGFYPSDIAVEWESNGQPENNYKTTPPVLDSDGSFFLYSKLTVDKSRWQQGNVFSCSVMHEALHNHYTQKSLSLSPGK | 17.7

Target: His-tagged V158 FcγRIIIa (human, UniProt P08637 17-208)
Sequence (P08637 17-208 F176V): as the sequence (P08637 17-208 F176V) above
Assay: SPR, receptor on chip

Binder | Kd [nM]
S298A/E333A/K334A alemtuzumab (antibody) heavy: not shown | 39

Target: human F158 FcγRIIIa as used in SPR (human, UniProt P08637 17-208)
Sequence (P08637 17-208): as the sequence (P08637 17-208 F176V) above, with V160F counted along it
Assay: SPR

Binder | Kd [nM]
S298A/E333A/K334A alemtuzumab (antibody) heavy: not shown | 156
